Reference: patent US20130323786A1

Key:
[1] = target: human Fc receptor CD64-GST fusion protein (human) (UniProt P12314); assay: ALPHA competition assay: test antibody competes with biotinylated wild-type IgG1 (m7) for the receptor-GST fusion; panel title huCD64 [continued) D]
[2] = target: human Fc receptor CD16-GST fusion protein (human) (UniProt P08637); assay: ALPHA competition assay: test antibody competes with biotinylated wild-type IgG1 (m7) for the receptor-GST fusion; panel title huCD16a V
Chain of human Fc receptor CD16-GST fusion protein (human) (P08637 17-208): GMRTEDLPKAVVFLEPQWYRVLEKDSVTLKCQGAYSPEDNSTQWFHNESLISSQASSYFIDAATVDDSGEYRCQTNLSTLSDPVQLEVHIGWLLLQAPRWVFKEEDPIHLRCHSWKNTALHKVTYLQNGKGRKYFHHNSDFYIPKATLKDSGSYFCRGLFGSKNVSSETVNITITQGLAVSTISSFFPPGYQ

[3] = target: LINGO-1 (human) (UniProt Q96FE5); assay: Cell bridging assay; fit of an essentially flat control curve (see non_binding); the axis on the sheet has no unit, µg/mL is from paragraph 391

Chain of human Fc receptor CD64-GST fusion protein (human) (P12314 16-292 limits assumed): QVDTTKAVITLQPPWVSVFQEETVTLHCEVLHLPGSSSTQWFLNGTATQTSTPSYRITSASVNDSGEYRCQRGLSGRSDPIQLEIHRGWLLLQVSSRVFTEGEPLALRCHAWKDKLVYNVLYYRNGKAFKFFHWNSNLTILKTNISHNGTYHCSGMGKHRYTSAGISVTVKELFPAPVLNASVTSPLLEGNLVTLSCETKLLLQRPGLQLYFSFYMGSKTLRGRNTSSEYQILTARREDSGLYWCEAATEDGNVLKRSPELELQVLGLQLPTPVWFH

| Substance | IC50 [1] [µg/mL] | IC50 [2] [µg/mL] | C (midpoint parameter of the printed 4-parameter fit) [3] [µg/mL] |
| --- | --- | --- | --- |
| agly 5c8 T299A (JF) (antibody) | 25 | 62 | – |
| huIgG1 (antibody) | – | – | 3.55 |
